The source of these data is US20240384250A1, “FIBROBLAST GROWTH FACTOR 23 MODULATING COMPOUNDS” (THE UAB RESEARCH FOUNDATION, priority 2021, published 2024).

Test [1] concerns the target T1, FGFR4 (Homo sapiens, UniProt P22455).
T1 construct: Fc-FGFR4 protein (human ectodomain) was immobilized; purchased R&D Systems 685FR050
T1 sequence (P22455 22-369 limits assumed): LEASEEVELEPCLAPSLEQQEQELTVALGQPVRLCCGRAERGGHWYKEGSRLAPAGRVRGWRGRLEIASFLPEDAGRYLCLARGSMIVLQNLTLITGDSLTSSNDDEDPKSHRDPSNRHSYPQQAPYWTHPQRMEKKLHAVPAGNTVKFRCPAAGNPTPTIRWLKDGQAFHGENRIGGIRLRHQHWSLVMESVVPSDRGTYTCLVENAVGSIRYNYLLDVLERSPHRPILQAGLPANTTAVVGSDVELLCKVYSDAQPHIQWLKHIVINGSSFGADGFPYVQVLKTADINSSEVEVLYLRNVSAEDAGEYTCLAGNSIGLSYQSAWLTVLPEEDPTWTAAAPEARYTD
Put plainly: Surface plasmon resonance, FGFR4 ectodomain immobilized on chip. In kind it is binding. Particulars: SPR. As to the method: For the direct quantitative analysis of label-free molecular interactions in real time, surface plasmon resonance studies were conducted using BIAcore T200 and T200 evaluation software (28975001, Cytiva). Sensor SA (BR100398) and CMS chips (BR100399) were from Cytiva. For the preparation of heparin chips, heparin (2 mg) and amine-PEG3-Biotin (2 mg, 21347, Pierce) were dissolved in 200 μl of H2O and 10 mg of NaCNBH3 was added. The reaction mixture was heated at 70° C. for 24 hours; an additional 10 mg of NaCNBH3 was added; and the reaction was heated at 70° C. for another 24 hours. After cooling to room temperature, the mixture was desalted with the spin column (3000 MWCO). Biotinylated heparin was collected, freeze dried, and used for chip preparation. Biotinylated heparin was immobilized to streptavidin chips according to the manufacturer's protocol. In brief, 20 μl of biotinylated heparin solution (0.1 mg/ml) in HBS-P running buffer (0.01 M N-2-hydroxyethylpiperazine-N′-2-ethanesulfonic acid, 0.15 M NaCl, 0.005% surfactant P20 [pH7.4]; BR100368, Cytiva) was injected over flow cell 2 of the streptavidin chip at a flow rate of 10 μl/min. The successful immobilization of heparin was confirmed by the observation of an approximately 200-resonance unit increase in the sensor chip. The control flow cell (flow cell 1) was prepared by 1-minute injection with saturated biotin. For the preparation of FGFR4 chips, Fc-FGFR4 protein (human ectodomain) was immobilized on research grade CMS chips according to the standard amine coupling protocol. Briefly, carboxymethyl groups on the CMS chip surface were first activated using an injection pulse of […] of an equimolar mix of N-ethyl-N-(dimethylaminopropyl) carbodiimide and N-hydroxysuccinimide (final concentration 0.05 M, mixed immediately before injection). After activation, FGFR4 was diluted to […] in 100 mM sodium acetate (pH 5.5) buffer and injected over the activated biosensor surface. […] The response was monitored as a function of time (sensorgram) at 25° C.

The subject of test [2] is FGF21 binding to FGFR isoforms 1c, 2c, 3c, 4. Put plainly: Pull-down and plate binding of FGF21 to FGFR isoforms with sKL or heparin. On the set-up: species or system human. As for the experimental part:
To study the interaction between Fc-tagged FGFR isoforms (Fc-FGFR), FGF isoforms, and sKL, immunoprecipitation studies were conducted. Protein A beads (6501, BioVision) and protein G beads (6511, BioVision) were used at 25 μl of a 50% stock slurry per sample in a total bead volume of 50 μl. Beads were washed 5× in activity buffer (50 mM Tris [pH 7.4], 200 mM NaCl, 0.01% Tween 20). Bead spin-down assays were all performed for 2 minutes at 5000 g. Beads were resuspended in 1 ml of activity buffer in a 1.5-ml snap cap tube. One microgram of Fc-FGFR1 to 4 was incubated with the beads for 1 hour on a bead rotator. Control samples were incubated with 2 μg of anti-FGF antibody instead of Fc-FGFR. […] Samples were analyzed using SDS-PAGE and Western blotting.
Proteins were coated on 96-well plates (MaxiSorp; 439454, Thermo Fisher Scientific), and proteins were added to wells in 100 μl of enzyme-linked immunosorbent assay (ELISA) coating buffer (E107, Bethyl Laboratories) with a lid placed overtop and incubated at 4° C. overnight. […] Reactions were stopped with ELISA stop solution (E115, Bethyl Laboratories) and analyzed using the Synergy HI plate reader (BioTek) at 450 nm wavelength. […] As a control to remove background absorbance values, wells were coated with an equal amount of BSA to match the amount of protein coated in experimental wells and treated the same as experimental wells. […]

Entries after “also recorded” stand apart in the source; their conditions may differ.

B1: FGF23: recombinant fibroblast growth factor 23 protein from R&D Systems (protein)
chain: YPDTSPLLGSNWGSLTHLYTATARTSYHLQIHRDGHVDGTPHQTIYSALMITSEDAGSVVITGAMTRRFLCMDLHGNIFGSLHFSPENCKFRQWTLENGYDVYLSQKHHYLVSLGRAKRIFQPGTNPPPFSQFLARRNEVPLLHFYTVRPRRHTRSAEDPPERDPLNVLKPRPRATPVPVSCSRELPSAEEGGPAASDPLGVLRRGRGDARGGAGGADRCRPFPRFV
What is called Kd is a measure of binding affinity in units of concentration. Lower therefore signals a tighter complex. The molecule B1 showed a Kd in test [1] of 320 nM. In test [1] (25° C.), the ka is 1.2 × 10^3 1/MS and the kd is on record as 0.04 1/S.

B2: sKL: recombinant soluble α-klotho ectodomain, mouse aa 35-982 and human aa 34-981, FLAG- or Strep/His-tagged, purified from HEK293 cells (protein)
chain: EPGDGAQTWARFSRPPAPEAAGLFQGTFPDGFLWAVGSAAYQTEGGWQQHGKGASIWDTFTHHPLAPPGDSRNASLPLGAPSPLQPATGDVASDSYNNVFRDTEALRELGVTHYRFSISWARVLPNGSAGVPNREGLRYYRRLLERLRELGVQPVVTLYHWDLPQRLQDAYGGWANRALADHFRDYAELCFRHFGGQVKYWITIDNPYVVAWHGYATGRLAPGIRGSPRLGYLVAHNLLLAHAKVWHLYNTSFRPTQGGQVSIALSSHWINPRRMTDHSIKECQKSLDFVLGWFAKPVFIDGDYPESMKNNLSSILPDFTESEKKFIKGTADFFALCFGPTLSFQLLDPHMKFRQLESPNLRQLLSWIDLEFNHPQIFIVENGWFVSGTTKRDDAKYMYYLKKFIMETLKAIKLDGVDVIGYTAWSLMDGFEWHRGYSIRRGLFYVDFLSQDKMLLPKSSALFYQKLIEKNGFPPLPENQPLEGTFPCDFAWGVVDNYIQVDTTLSQFTDLNVYLWDVHHSKRLIKVDGVVTKKRKSYCVDFAAIQPQIALLQEMHVTHFRFSLDWALILPLGNQSQVNHTILQYYRCMASELVRVNITPVVALWQPMAPNQGLPRLLARQGAWENPYTALAFAEYARLCFQELGHHVKLWITMNEPYTRNMTYSAGHNLLKAHALAWHVYNEKFRHAQNGKISIALQADWIEPACPFSQKDKEVAERVLEFDIGWLAEPIFGSGDYPWVMRDWLNQRNNFLLPYFTEDEKKLIQGTFDFLALSHYTTILVDSEKEDPIKYNDYLEVQEMTDITWLNSPSQVAVVPWGLRKVLNWLKFKYGDLPMYIISNGIDDGLHAEDDQLRVYYMQNYINEALKAHILDGINLCGYFAYSFNDRTAPRFGLYRYAADQFEPKASMKHYRKIIDSNGFPGPETLERFCPEEFTVCTECSFFHTRKS
modifications: left off: small tags and cut ends
notes: recombinant soluble α-klotho ectodomain, mouse aa 35-982 and human aa 34-981, FLAG- or Strep/His-tagged, purified from HEK293 cells
Regarding B2, in test [2], the “binding of FGF21 to any of the FGFR isoforms” value was “did not mediate binding; also recorded: did not lead to complex formation; also recorded: did not bind any of the FGFR isoforms”.
